Earlier results on one molecule are cited in patent US6759384B1, “Factor Xa inhibitors” (Aventis Pharmaceuticals Inc., priority 1994, dated 2004).

This series deals with factor Xa. As to conditions: background section.

B1: ATS: antistasin, protein inhibitor of factor Xa isolated from the leech Haementerin officinalis, 119 amino acids (protein, UniProt P15358 18-136, looked up)
Antistasin: QGPFGPGCEEAGCPEGSACNIITDRCTCSGVRCRMHCPHGFQRSRYGCEFCKCRLEPMKATCDISECPEGMMCSRLTNKCDCKIDINCRKTCPNGLKRDKLGCEYCECRPKRKLIPRLS
A word on the Ki: it is the dissociation constant of the complex between target and ligand, obtained from inhibition or displacement. Consider B1, for which the inhibitory constant (Ki) is 0.05 nM.
